Results as given in US20230016396A1.

Columns and labels:
[1] = molecular target: T1, M15-L-P1-AR target polypeptide with P1 = A
T1 chain: LAAR

[2] = molecular target: T2, M15-L-P1-AR target polypeptide with P1 = I
T2 chain: LIAR

[3] = molecular target: T3, M15-L-P1-AR target polypeptide with P1 = L
T3 chain: LLAR

[4] = molecular target: T4, M15-L-P1-AR target polypeptide with P1 = M
T4 chain: LMAR

[5] = molecular target: T5, M15-L-P1-AR target polypeptide with P1 = Q
T5 chain: LQAR

[6] = molecular target: T6, M15-L-P1-AR target polypeptide with P1 = V
T6 chain: LVAR

[7] = molecular target: T7, M15-L-P1-AR target polypeptide with P1 = D
T7 chain: LDAR

[8] = molecular target: T8, M15-L-P1-AR target polypeptide with P1 = E
T8 chain: LEAR

[9] = molecular target: T9, M15-K(biotin)-AAR peptide (SEQ ID NO: 12)
T9 chain: KAAR

B1: M15-L_Z001 (first selected modified cleavase) (protein)
chain: MHKTRLVAALAAALATLAPAAWADEGMWVPQQLPEIAGALKKAGLKLDPKQLSDLTGDPMGAVVSLGGCTGSFVSPQGLVATNHHCAYGAIQLNSTPEKNLIKDGFNAPTQADELSAGPNARIYVLEGITDVTAQAKAAMAAAGNDPVARANALEAFEKKITSDCEAEPGYRCRVYSFMGGITYRLFKNLEIKDVRLVYAPPSSVGKFGGDIDMGMWPTHTGDFSFYRAYVGKDGKPAPYSKDNVPYRPKHWLKIADTPLGEGDFVMVAGYPGRTDRYALVAEFENTQNWLYPAISKAYKDQIALVEAAAKDNPEIAVKYAAALAGWNRTSKNFDGQLEGFKRNDVLAIKRREEAAVLEWLRARGKAGTPALEAHAALVKLVADTARTQERDLVLGSFNRTGIIGVAVNLYRLAIERQKPDAEREPGYQQRDLPVIEGSLKQMERRYVPAMDRQLRAYWLDRYVALPAAQHVAAVDAWLGGSDKAAAEAALARLDQSRLGSLEERLKWFNADRAAFEASTDPAIQYAVAVMPTLLAMEQQAKTRYGVALEARPRYLQAVVDYKKSKGQAVYPDANSTLRITYGHVKGYTGLNGKVYTPFTTLEEVAAKETGVEPFDNPKALLEAVAAKRYAGLADARLGTVPVNFLADLDITGGNSGSPVLDANGRLVGLAFAGTLESVASNWVFDPVLTRMISVDQRYMRWIMQEVMPAPQLLEELGVPPRQ
In the case of B1, the “cleavage of the M15-L-labeled P1 residue from the polypeptide” value (“cleavage of the M15-L-labeled P1 residue” for short) [1] is reported as “provided 100% cleavage for polypeptides with the following M15-L-labeled P1 residues: A, I, L, M, Q, V”, the “cleavage of the M15-L-labeled P1 residue” value [2] is reported as “provided 100% cleavage for polypeptides with the following M15-L-labeled P1 residues: A, I, L, M, Q, V” and the “cleavage of the M15-L-labeled P1 residue” value [3] is reported as “provided 100% cleavage for polypeptides with the following M15-L-labeled P1 residues: A, I, L, M, Q, V”. The “cleavage of the M15-L-labeled P1 residue” value [4] was “provided 100% cleavage for polypeptides with the following M15-L-labeled P1 residues: A, I, L, M, Q, V”, the “cleavage of the M15-L-labeled P1 residue” value [5] was “provided 100% cleavage for polypeptides with the following M15-L-labeled P1 residues: A, I, L, M, Q, V” and the “cleavage of the M15-L-labeled P1 residue” value [6] was “provided 100% cleavage for polypeptides with the following M15-L-labeled P1 residues: A, I, L, M, Q, V”.

B2: M15-L_Z002 (protein)
chain: MHKTRLVAALAAALATLAPAAWADEGMWVPQQLPEIAGALKKAGLKLDPKQLSDLTGDPMGAVVSLGGCTGSFVSPQGLVATNHHCAYGAIQLNSTPEKNLIKDGFNAPTQADELSAGPNARIYVLEGITDVTAQAKAAMAAAGNDPVARANALEAFEKKITSDCEAEPGYRCRVYSFMGGITYRLFKNLEIKDVRLVYAPPSSVGKFGGDIDMGMWPTHTGDFSFYRAYVGKDGKPAPYSKDNVPYRPKHWLKIADTPLGEGDFVMVAGYPGRTDRYALVAEFENTQNWLYPAISKAYKDQIALVEAAAKDNPEIAVKYAAALAGWNRTSKNFDGQLEGFKRNDVLAIKRREEAAVLEWLRARGKAGTPALEAHAALVKLVADTARTQERDLVLGSFNRTGIIGVAVNLYRLAIERQKPDAEREPGYQQRDLPVIEGSLKQMERRYVPAMDRQLRAYWLDRYVALPAAQHVAAVDAWLGGSDKAAAEAALARLDQSRLGSLEERLKWFNADRAAFEASTDPAIQYAVAVMPTLLAMEQQAKTRYGVALEARPRYLQAVVDYKKSKGQAVYPDANSTLRITYGHVKGYTGLNGKVYTPFTTLEEVAAKETGVEPFDNPKALLEAVAAKRYAGLADARLGTVPVNFLADLDITGGNSGSPVLDANGRLVGLAFAGTLESVASNWVFDPVLTRMISVDQRYMRWIMQEVMPAPQLLEELGVPPRQ
B2 was tested, and the “cleavage profile (cleavage efficiency)” value [7] was “M15-L_Z002, having specificity towards D and E in the P1 position” and the “cleavage profile (cleavage efficiency)” value [8] was “M15-L_Z002, having specificity towards D and E in the P1 position”.

B3: engineered dipeptidyl peptidase clone (SEQ ID NO: 6) derived from dipeptidyl peptidase from Thermomonas hydrothermalis (protein)
chain: DEGMWVPQQLPEIAGALKKAGLKLDPKQLSDLTGDPMGAVVSLGGCTGSFVSPQGLVATNHHCAYGAIQLNSTPEKNLIKDGFNAPTQADELSAGPNARIYVLEGITDVTAQAKAAMAAAGNDPVARANALEAFEKKITSDCEAEPGYRCRVYSFMGGITYRLFKNLEIKDVRLVYAPPSSVGKFGGDIDMGMWPTHTGDFSFYRAYVGKDGKPAPYSKDNVPYRPKHWLKIADTPLGEGDFVMVAGYPGRTDRYALVAEFENTQNWLYPAISKAYKDQIALVEAAAKDNPEIAVKYAAALAGWNRTSKNFDGQLEGFKRNDVLAIKRREEAAVLEWLRARGKAGTPALEAHAALVKLVADTARTQERDLVLGSFNRTGIIGVAVNLYRLAIERQKPDAEREPGYQQRDLPVIEGSLKQMERRYVPAMDRQLRAYWLDRYVALPAAQHVAAVDAWLGGSDKAAAEAALARLDQSRLGSLEERLKWFNADRAAFEASTDPAIQYAVAVMPTLLAMEQQAKTRYGVALEARPRYLQAVVDYKKSKGQAVYPDANSTLRITYGHVKGYTGLNGKVYTPFTTLEEVAAKETGVEPFDNPKALLEAVAAKRYAGLADARLGTVPVNFLADLDITGGNSGSPVLDANGRLVGLAFAVTLESVASNWVFDPVLTRMISVDQRYMRWIMQEVMPAPQLLEELGVPPRQ
With B3 the “percentage of conversion to cleavage product (HPLC, UV absorbance at 254 nm)” value [9] was “about 10% of the model peptide was converted to the cleavage product, M15-K(biotin)-A”.
